From article PMC6167328, “Elucidating a role for the cytoplasmic domain in the Mycobacterium tuberculosis mechanosensitive channel of large conductance” (Scientific Reports, 2018)

Molecular target: the molecule itself
Experiment: crystal structure

B1: C-terminal domain truncation of the Mycobacterium tuberculosis mechanosensitive channel of large conductance (MtMscLΔC) (domain or fragment)
chain: MLKGFKEFLARGNIVDLAVAVVIGTAFTALVTKFTDSIITPLINRIGVNAQSDVGILRIGIGGGQTIDLNVLLSAAINFFLIAFAVYFLVVLPYNTLRKKG
notes: Residues 97-101 are not resolved in the model; also called Mt ∆C
stoichiometry N: 5
